Experimental data taken from patent US20220143145A1.

Experiments:
[1] = biological target: IL10 receptor (IL10Rα) on mouse sensory neurons (mouse) (UniProt Q61727); assay: cell-based or functional assay
[2] = biological target: IL4 receptor (IL4Rα) on mouse sensory neurons (mouse) (UniProt P16382); assay: cell-based or functional assay
Chain of UniProt P16382 (P16382 26-810): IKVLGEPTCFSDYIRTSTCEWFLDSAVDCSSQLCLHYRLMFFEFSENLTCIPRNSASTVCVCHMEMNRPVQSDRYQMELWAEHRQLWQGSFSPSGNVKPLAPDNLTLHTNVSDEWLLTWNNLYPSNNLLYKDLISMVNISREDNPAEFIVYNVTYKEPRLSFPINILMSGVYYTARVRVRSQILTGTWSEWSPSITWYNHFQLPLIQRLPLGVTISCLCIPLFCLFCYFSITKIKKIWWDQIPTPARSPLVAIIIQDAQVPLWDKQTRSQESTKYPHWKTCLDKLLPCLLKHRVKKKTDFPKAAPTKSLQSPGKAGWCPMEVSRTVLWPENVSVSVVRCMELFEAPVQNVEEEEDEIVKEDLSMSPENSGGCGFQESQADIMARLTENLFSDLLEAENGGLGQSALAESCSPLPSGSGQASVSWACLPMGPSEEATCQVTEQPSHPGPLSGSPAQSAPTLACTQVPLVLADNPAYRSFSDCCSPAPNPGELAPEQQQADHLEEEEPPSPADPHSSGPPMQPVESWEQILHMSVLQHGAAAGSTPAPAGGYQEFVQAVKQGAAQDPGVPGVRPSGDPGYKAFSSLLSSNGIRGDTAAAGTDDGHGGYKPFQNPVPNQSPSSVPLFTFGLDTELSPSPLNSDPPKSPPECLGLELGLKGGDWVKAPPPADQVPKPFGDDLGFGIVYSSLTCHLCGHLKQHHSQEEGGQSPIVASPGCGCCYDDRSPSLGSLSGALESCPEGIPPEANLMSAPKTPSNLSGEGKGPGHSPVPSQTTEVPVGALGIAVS

Chain of UniProt Q61727 (Q61727 17-575): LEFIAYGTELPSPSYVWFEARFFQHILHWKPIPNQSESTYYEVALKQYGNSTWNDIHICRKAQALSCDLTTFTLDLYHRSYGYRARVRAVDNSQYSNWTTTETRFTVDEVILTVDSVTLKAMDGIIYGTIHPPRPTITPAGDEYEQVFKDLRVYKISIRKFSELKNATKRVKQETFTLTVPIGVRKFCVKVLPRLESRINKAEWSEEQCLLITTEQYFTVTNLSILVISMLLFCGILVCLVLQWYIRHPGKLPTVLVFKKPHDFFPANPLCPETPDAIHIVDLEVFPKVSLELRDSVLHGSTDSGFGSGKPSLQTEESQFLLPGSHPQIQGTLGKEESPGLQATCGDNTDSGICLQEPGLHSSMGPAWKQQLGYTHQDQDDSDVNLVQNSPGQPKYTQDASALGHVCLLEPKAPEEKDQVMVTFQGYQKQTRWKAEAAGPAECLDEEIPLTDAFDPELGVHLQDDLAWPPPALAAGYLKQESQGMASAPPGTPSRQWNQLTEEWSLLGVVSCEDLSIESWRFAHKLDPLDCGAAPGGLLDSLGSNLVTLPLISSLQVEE

IL4-10 fusion protein (ligand)
concentration that completely reversed TNFα-induced sensitization of capsaicin-evoked calcium influx [1]: 3 nM | concentration that completely reversed TNFα-induced sensitization of capsaicin-evoked calcium influx [2]: 3 nM
